As usually defined, the stoichiometry N is the number of molecules, sites or subunits per partner or assembly.

These results are taken from article PMC8699698, “Oligomeric States and Hydrodynamic Properties of Lysyl Oxidase-Like 2” (Biomolecules, 2021).

Where a chain is given by its changes, count along the chain named. Names may count otherwise. “And” between values parts separate entries of the source, which are not always exact repeats. Equal entries are not always repeated.

Data set [1] has as its target T1, full-length lysyl oxidase-like 2 (fl-LOXL2), wild type, Q9Y4K0.
T1 chain: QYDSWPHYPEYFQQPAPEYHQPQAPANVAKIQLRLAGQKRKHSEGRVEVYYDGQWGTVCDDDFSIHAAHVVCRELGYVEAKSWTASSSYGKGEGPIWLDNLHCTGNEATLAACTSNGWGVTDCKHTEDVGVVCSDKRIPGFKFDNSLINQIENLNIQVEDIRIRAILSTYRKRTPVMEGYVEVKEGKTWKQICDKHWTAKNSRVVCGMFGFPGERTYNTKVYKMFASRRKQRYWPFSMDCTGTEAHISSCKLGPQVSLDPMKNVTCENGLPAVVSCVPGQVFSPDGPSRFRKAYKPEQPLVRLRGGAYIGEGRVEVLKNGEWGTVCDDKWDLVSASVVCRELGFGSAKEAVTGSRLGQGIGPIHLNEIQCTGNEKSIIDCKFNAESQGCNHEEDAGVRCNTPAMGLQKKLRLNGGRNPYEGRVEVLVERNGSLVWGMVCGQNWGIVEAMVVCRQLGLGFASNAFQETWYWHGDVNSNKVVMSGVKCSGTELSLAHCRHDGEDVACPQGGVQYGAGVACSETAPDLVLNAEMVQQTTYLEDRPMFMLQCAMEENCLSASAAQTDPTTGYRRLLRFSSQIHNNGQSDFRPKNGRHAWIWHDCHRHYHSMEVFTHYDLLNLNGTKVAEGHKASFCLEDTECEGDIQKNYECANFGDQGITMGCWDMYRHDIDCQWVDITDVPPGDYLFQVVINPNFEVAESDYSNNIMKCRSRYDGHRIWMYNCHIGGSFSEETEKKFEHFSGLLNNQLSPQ
In words: SEC-MALS; Superdex 200 10/300, 50 mM Tris pH 8.0, 150 mM NaCl, 0.01% sodium azide; fl-LOXL2 at concentrations from 0.08 to 1.6 uM; self-association. The settings on record: remark: other sources report otherwise.

For data set [2], the target named is T1, full-length lysyl oxidase-like 2 …. In words: AUC; Sedimentation velocity, 20 °C, 40,000 RPM, 50 mM HEPES pH 8.0, fl-LOXL2 at 0.88, 0.30 and 0.088 mg/mL, c(s) model of SEDFIT; self-association. The settings on record: remark: other sources report otherwise.
For data set [3] the target is unchanged. In words: native gel or EMSA; Native PAGE, NativePAGE 4 to 16% Bis-Tris gels, 125 V for 2 h; self-association of purified LOXL2 forms. The settings on record: remark: other sources report otherwise.
Data set [4] deals with the molecule itself. Described as above.

B1: full-length lysyl oxidase-like 2 (fl-LOXL2), wild type, Q9Y4K0 26-774 (enzyme)
chain: T1 chain
modifications: here or on the partner: lysine tyrosylquinone (LTQ) cofactor (precursor residues Lys653 and Tyr689), Cu2+ bound; N-glycans (N-glycosylation sites Asn288, Asn455, Asn644); lysine tyrosylquinone (LTQ) cofactor (precursor residues Lys653 and Tyr689), Cu2+ bound; N-glycans (N-glycosylation sites Asn288, Asn455, Asn644)
As for B1, in data set [1], the stoichiometry N is 2 and 4. In data set [2], the percent of dimer stood at 11.6%; the percent of monomer was found to be 83.6%; the percent of tetramer and pentamer together is 4.7%; the stoichiometry N was 4 and 5 and 2. Besides, the stoichiometry N in data set [3] is 2 and 4.

B2: K317R-LOXL2, full-length form (furin-cleavage site engineered) (enzyme, UniProt Q9Y4K0 26-774, looked up)
chain: T1 chain with K292R
notes: Lysyl oxidase-like 2 (LOXL2), K317R mutant, the full-length species in the K317R-LOXL2 lane of the native gel; the bands at ~175 and ~340 kDa are ascribed to its full-length form; also called K317R mutant
In the case of B2, the “stoichiometry N” value in data set [4] was 2 and 4.

B3: R314A/R316A/K317Q-LOXL2 (AAQ-LOXL2, a PACE4 cleavage site null mutant), full length (enzyme, UniProt Q9Y4K0 26-774, looked up)
chain: T1 chain with R289A, R291A, K292Q
notes: Lysyl oxidase-like 2 (LOXL2), full-length form with the PACE4 cleavage site mutated (text: R314A/R316A/K317Q); Secreted protein; also called R315A/R316A/K317Q mutant form of LOXL2
On to B3, for which the “stoichiometry N” value in data set [4] is 2 and 4.
